The supplement of paper PMC9170038

Tested on: MS2 coat protein
Test: apparent KD of MS2 coat protein; designed switch direction (-1 OFF switch, 1 ON switch): -1; higher = weaker reporter binding
Summary of the method: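 Transcription of designed RNA switches on Illumina chips was done by stalled E. coli RNA polymerase. SNAP-549-labelled MS2 coat protein was then titrated in doubling steps from 0.7 or 1.5 nM to 3 µM, with steps of 0.8–1.5 h at the lowest and 10–20 min at the highest concentration. The per-design median over clusters of curve-fitted normalised fluorescence is reported as apparent KD.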

[1] = Eterna round: R95, input ligand: FMN 200 uM
[2] = Eterna round: R95, input ligand: microRNA oligo, concentration not stated
[3] = Eterna round: R95, input ligand: none
[4] = input ligand: microRNA oligo, concentration not stated

Row | Sequence | apparent KD of MS2 coat protein [1] [nM] | apparent KD of MS2 coat protein [2] [nM] | apparent KD of MS2 coat protein [3] [nM] | apparent KD of MS2 coat protein (input ligand: FMN 200 uM) [nM] | apparent KD of MS2 coat protein (input ligand: none) [nM] | apparent KD of MS2 coat protein [4] [nM]
1 | GAUUAUGCGAGCUUUAGGGACAUGAGGAUCACCCAUGUUCGUCUUAUUAAUCUGGGUACACUAGCAUACCUAAAUCU [JMF 8] (puzzle: Sensor v3, turn-off variant 1) | 26.9 | 44.1 | 30.5 |  |  | 
2 | CCCACAAGCUUUUUGCUCGACAUGAGGAUCACCCAUGUAAAAUGGGUUAUAUAUAUAUGAAACAUAUAUAUAUACCU [-21.6, -47.5 kcal, A 35%] (Eterna round: R97, puzzle: Sensor, turn-off variant 1) |  |  |  | 43.9 | 47.6 | 
3 | AAUUCACAUGAGGAUCACCCAUGUCAGGAUAUGGUUUCACGUGUUUCUUUGCUUGAGGCCAGAAGGGACAGCUA (puzzle: Exclusion 1) |  | 67.2 |  |  |  | 
4 | GGUGCGUAUGUGAGGAUAUGCUGGUCCUUGGCUCAGCAGAAGGCACAUGAGGAUCACCCAUGUGGUGUCGUACC [salish99_Bmod_Ex4_027] (puzzle: Brourd's mod of Exclusion 4) |  | 229 |  |  |  | 
5 | UAUUAGCAAGCGAGAUCCCACAUGAGGAUCACCCAUGUAGCAUCCAGAAUUACUGGGUGCAAAAGCUCGUCUUAUUA [Winner reversed engineered 4] (Eterna round: R97, puzzle: Sensor, turn-off variant 1) |  |  |  | 25.4 | 26.1 | 
6 | CAGACACAUGAGGAUCACCCAUGUGAGGAUAUGCGUACGUUGUCCGUAGGCGACGUGCGCAGAAGGCGCAUAGG [JL-ex1-3.11 Eli mod] (puzzle: Exclusion 1) | 51.7 | 74.3 | 50.1 |  |  | 
7 | ACAAGCUCUGUGGGUGGUGACAUGAGGAUCACCCAUGUUUUGCUCGUCUUGUGCCGGCCGGCCCGCGGCCGGCCGGC [-40.6, -69.5, A 12%] (Eterna round: R97, puzzle: Sensor, turn-off variant 1) |  |  |  | 718 | 885 | 
8 | CCGAGGUAGCGGUCCUAUGACAUGAGGAUCACCCAUGUACCUCGCUACGAGCUUUUUGCUCAUCUUAUAAUUCUCGG [Atriat] (puzzle: Sensor v3, turn-off variant 1) | 20.9 | 26.1 | 19.2 |  |  | 
9 | GUCUUACAUGAGGAUCACCCAUGUGAGGAUAUGAGUGGUGCUGCUAGGUAGUAUAGACUCAGAAGGCGCAUGAU [Malcxlusion 3 - Jieux - Exclusion 1] (Eterna round: R97, puzzle: Exclusion 1) |  |  |  | 37.7 | 22.6 | 
10 | AAAUGACAUGAGGAUCACCCAUGUGGCCCUUAGACUCAUAUCGAGGAUAUCCAGGGCCGGGCCGUGGAGAAGGCGAAUUAAAAU [Edatriusti] (Eterna round: R96, puzzle: Exclusion NG 3) |  |  |  | 32.1 | 40.6 | 26.1
11 | CAUCUCGUAGGAUAUUCACAAAAGCACAUGAGGAUCACCCAUGUUAUCCGACAUGAUGCCGAAGAAGGACGAAAAC [Di] (puzzle: Exclusion 5) | 107 | 79.8 | 78.9 |  |  | 
12 | UGAAGUAGAAACCGAUCCUACAUGAGGAUCACCCAUGUAGCAAGACGUGCACGCGAAGCUCGUCAGACUACCAGAAG [salish99_TOv1_r3_002] (puzzle: Sensor v3, turn-off variant 1) | 170 | 167 | 366 |  |  | 
13 | AACCUAGUCAUAGGAUAUACAGGCAAAGCCAAAGUAGAAGGAUGACACAUGAGGAUCACCCAUGUGGUCCUUGAACAAAAUAAC [Esatier] (Eterna round: R96, puzzle: Exclusion NG 1) |  |  |  |  |  | 24.1
14 | AGCUGUGGCCGAGGAUAUGACAUGAGGAUCACCCAUGUACACGAUUAGGCCUGGUAACAGGCUCAUCAGAAGGCGGUCUCAGCA [Eli eng2 - 017] (Eterna round: R96, puzzle: Exclusion NG 2) |  |  |  | 9.77 | 13 | 10.4
15 | AACACACAUGAGGAUCACCCAUGUGAGGAUAUCGUCGAGGAUGUAAUGCCAUCCGUGACGAGAAGGCACUUGGG [Exclusion 1 (Mod 3 solution 40 by Eternabot)] (Eterna round: R97, puzzle: Exclusion 1) |  |  |  | 58.8 | 211 | 
16 | UAUAUAUAGUAAGGAUAUGUAUUAAUUUCAUAAACAGAAGGUACUGACAUGAGGAUCACCCAUGUUUUAGUGUGGGCAUGUAGA [JMF's solution 85] (Eterna round: R96, puzzle: Exclusion NG 1) |  |  |  | 88.2 | 81.2 | 54.2
17 | AAUGUGUGAGGAUAUUAGUUGUACGUCAAUAGACGUAUAAGUGAGAAGGCACAUGAGGAUCACCCAUGUUCCUG [Omei Ex4 Mod of Mat's R95 mod of Omei v6] (Eterna round: R97, puzzle: Exclusion 4) |  |  |  | 109 | 24.9 | 

Row | Sequence | apparent KD of MS2 coat protein [1] [nM] | apparent KD of MS2 coat protein [2] [nM] | apparent KD of MS2 coat protein [3] [nM] | apparent KD of MS2 coat protein (input ligand: FMN 200 uM) [nM] | apparent KD of MS2 coat protein (input ligand: none) [nM] | apparent KD of MS2 coat protein [4] [nM]
18 | GCCGUUAAGGUAGGAUAUGCUCGGUCUGUGCGUGCAGAAGGGCUGGUCGGCGACUUGAGGAUCACCCAAGUGGUCUUAUAGAAA [Mutated MS2 EX1.21] (Eterna round: R96, puzzle: Exclusion NG 1) |  |  |  | 121 | 64.8 | 142
19 | UACACUGCAUGAGGAUCAAACAUGAGGAUCACCCAUGUGUAGCAAGCUUUUUGCUCGUCUUAUAAAUAUGUAGUGUA [Electric Eye 10 - Jieux - Sensor, turn-off variant 1] (Eterna round: R97, puzzle: Sensor, turn-off variant 1) |  |  |  | 13.4 | 12.9 | 
20 | AACAGUACAGGAUAUACAUGAGGAUCACCCAUGUGAGAAUUAUGUGGCGUACCACAAAGUAGAAGGGUACUGGA [JL Maslow Revisted mod 3] (Eterna round: R96, puzzle: Exclusion 3) |  |  |  | 497 | 69.6 | 61.3
21 | UUACGACAUGAGGAUCACCCAUGUUAGGAUAUGUGGCGAGAGCGCUAGCCUCGGGCCAACAGAAGGAAUAGGGC [Eternabot (L2) Solution 35] (Eterna round: R97, puzzle: Exclusion 1) |  |  |  | 53.4 | 58.5 | 
22 | AAGAAGAAGUAAGGAUAUGAAGAUCUGGUGGUGACAUGAGGAUCACCCAUGUGAAAACGAUAAGAUCAGAAGGUAUAAGAAGAA [AK ExNG2-3.2] (Eterna round: R96, puzzle: Exclusion NG 2) |  |  |  | 86.8 | 85.8 | 48.4
23 | GGAUCGAGUGUGAGGAUAUGCUGGUCCUUGGAUCAGCAGAAGGCACAUGAGGAUCACCCAUGUGAAGACGGUCC [JL bmx4 3.16] (puzzle: Brourd's mod of Exclusion 4) | 270 | 24.7 | 25.8 |  |  | 
24 | CUUUUGUGAGGAUAUCAGUAGUAAAAGAAUAAAAUUACUACUGAGAAGGCACAUGAGGAUCACCCAUGUUCCUC [Mat - Exclusion 4 - Mod of Salish - D61] (puzzle: Exclusion 4) |  | 36.7 |  |  |  | 
25 | CAUAUGUGAGGAUAUGACAAUGGUAUCUUCGGAUACCAUUGUCAGAAGGCACAUGAGGAUCACCCAUGUGGAUC [Exclusion 4 - Mod Brourd Ex 4-3: 20 v.5] (puzzle: Exclusion 4) |  | 151 |  |  |  | 
26 | AGUACUAACACGAUAGUGUUAGUACAAUAAGCUUGUGUUACAUGAGGAUCACCCAUGUCCUCAUAAGCUCGUCUUAA [Mat - Sensor v3 - Turn-off var 2 - D59] (puzzle: Sensor v3, turn-off variant 2) | 44.3 | 594 | 35.3 |  |  | 
27 | UUUAAUUUUUUUUUUUUACAAGCUUUUUGCUCGUCUUAUACAUGAGGAUCACCCAUGUGAAUGGGAAGUAAAUUAUC [JMF 51] (puzzle: Sensor v3, turn-off variant 2) | 103 | 183 | 148 |  |  | 
28 | GAGGCUAAAGGAUAUACAUGAGGAUCACCCAUGUGGAGGAAGGUUAGAUGAGGAGAAGGUAGAAGGUUAGGCGA [JR_Exclu3_Sub093] (puzzle: Exclusion 3) | 29.7 | 23.6 | 28.6 |  |  | 
29 | GUAAUUAUAUAGGAUAUCGAACUUAUUAUUUAACGAGAAGGAUGAACAUGAGGAUCACCCAUGUGGUAUCAUGG [JL-ex6-3.06] (puzzle: Exclusion 6) |  | 175 |  |  |  | 
30 | AAGAGCGUAGGAUAUACAUGAGGAUCACCCAUGUGAGGAGGGAAAAGGAGGUGUGGAAGUAGAAGGACGGAGUG [JR_Exclu3_Sub080] (puzzle: Exclusion 3) | 31.8 | 30.9 | 36.5 |  |  | 
31 | GUCUCCAGAGGAUAUCUUUUACGCGACAUGAGGAUCACCCAUGUAGAGGAGAUUGUCAGGAGAGAAGGCUGGGACG [Eternabot (L1) Solution 56] (Eterna round: R97, puzzle: Exclusion 5) |  |  |  | 55.1 | 42.7 | 
32 | AUAAUUAGUUCAGGAUAUCAGCACGUUUAGUGCUGAGAAGGGAACAUGAGGAUCACCCAUGUGAUCAAUAUUAUAAUUUUAAUU [ENG1/12-B2] (Eterna round: R96, puzzle: Exclusion NG 1) |  |  |  | 210 | 1100 | 754
33 | UUUUUAUAUGAAGGAUAUACUUAACAUGAGGAUCACCCAUGUGGUGUUGUGAGUGAGUGAGUUUAGUAGAAGGUCAGUUCUUUU [JMF's solution 79] (Eterna round: R96, puzzle: Exclusion NG 2) |  |  |  | 414 | 611 | 497
